In patent publication US20070180544A1:
One block for each molecule: values may come before it.

How the values were obtained:
[1] = biological target: extracellular domain of rat neurexin-1-β (rat-NX1β-1), residues 48-300 (rat) (UniProt Q63373); test: SPR, NX1β immobilised
[2] = biological target: extracellular domain of rat neurexin-1-β (rat-NX1β-1), residues 48-300 (rat) (UniProt Q63373); test: SPR, NX1β immobilised; one value told for the four proteins
[3] = biological target: extracellular domain of rat neurexin-1-β (rat-NX1β-1), residues 48-300 (rat) (UniProt Q63373); test: SPR, β-neurexin immobilised; 3 µM
[4] = biological target: extracellular domain of rat neurexin-1-β (rat-NX1β-1), residues 48-300 (rat) (UniProt Q63373); test: SPR, β-neurexin immobilised; 111 nM
[5] = biological target: extracellular domain of rat neurexin-1-β (rat-NX1β-1), residues 48-300 (rat) (UniProt Q63373); test: SPR (BIAcore), NX1β immobilised; from ka and kd
[6] = biological target: extracellular domain of rat neurexin-1-β (rat-NX1β-1), residues 48-300 (rat) (UniProt Q63373); test: SPR (BIAcore), NX1β immobilised
[7] = biological target: extracellular domain of rat neurexin-1-β (rat-NX1β-1), residues 48-300 (rat) (UniProt Q63373); test: SPR, NX1β immobilised; sialidase II treated against native protein
[8] = biological target: extracellular domain of rat neurexin-1-β (rat-NX1β-1), residues 48-300 (rat) (UniProt Q63373); test: SPR, NX1β immobilised; deglycosylated against native protein
[9] = biological target: extracellular domain of rat neurexin-1-β (rat-NX1β-1), residues 48-300 (rat) (UniProt Q63373); test: SPR, NX1β immobilised; treated against native protein
[10] = biological target: extracellular domain of rat neurexin-1-β (rat-NX1β-1), residues 48-300 (rat) (UniProt Q63373); test: SPR (BIAcore), NX1β immobilised, NL1 62.5-2000 nM
[11] = biological target: extracellular domain of rat neurexin-1-β (rat-NX1β-1), residues 48-300 (rat) (UniProt Q63373); test: SPR, NX1β immobilised; treated against native protein, 500 nM

increase of NX1β binding activity after PNGase F digestion [1]: 17%
Molecule: N303A-NL1-638 (from UniProt Q62765 46-638) (receptor)

increase of NX1β binding activity after PNGase F digestion [2]: 229%
Molecule: N343A-NL1-638 (from UniProt Q62765 46-638) (receptor)

fold less β-neurexin binding than wild type [3]: 50 fold
Molecule: R471C-NL3-639 (from UniProt Q62889 35-639) (receptor)

fold less total binding than wild type [4]: 3 fold
Molecule: R473T-NL1-691 (from UniProt Q62765 46-691) (receptor)

increase of NX1β binding activity after PNGase F digestion [2]: 229%
Molecule: S549A-NL1-638 (from UniProt Q62765 46-638) (receptor)

increase of NX1β binding activity after PNGase F digestion [2]: 229%
Molecule: T111A-NL1-638 (from UniProt Q62765 46-638) (receptor)

Kd [5]: 300 nM | koff [6]: 0.015 s⁻¹ | kon [6]: 50000 M⁻¹ s⁻¹
Molecule: soluble truncated NL1 (recombinant, soluble entity; truncation not specified) (from UniProt Q62765 46-691) (receptor)

fold increase in binding after sialidase-II treatment [7]: 2 to 2.5 fold | fold increase in binding after PNGase F treatment [8]: 3 fold | fold increase in binding after combined sialidase II and PNGase F treatment [9]: 5 fold
B1: NL1-691 (soluble rat neuroligin-1 truncated by a stop codon at Tyr-692, N-terminal FLAG) (receptor)
chain: DYKDDDDKLAAANSSIDLQKLDDVDPLVTTNFGKIRGIKKELNNEILGPVIQFLGVPYAAPPTGEHRFQPPEPPSPWSDIRNATQFAPVCPQNIIDGRLPEVMLPVWFTNNLDVVSSYVQDQSEDCLYLNIYVPTEDVKRISKECARKPGKKICRKGDIRDSGGPKPVMVYIHGGSYMEGTGNLYDGSVLASYGNVIVITVNYRLGVLGFLSTGDQAAKGNYGLLDLIQALRWTSENIGFFGGDPLRITVFGSGAGGSCVNLLTLSHYSEGNRWSNSTKGLFQRAIAQSGTALSSWAVSFQPAKYARILATKVGCNVSDTVELVECLQKKPYKELVDQDVQPARYHIAFGPVIDGDVIPDDPQILMEQGEFLNYDIMLGVNQGEGLKFVENIVDSDDGVSASDFDFAVSNFVDNLYGYPEGKDVLRETIKFMYTDWADRHNPETRRKTLLALFTDHQWVAPAVATADLHSNFGSPTYFYAFYHHCQTDQVPAWADAAHGDEVPYVLGIPMIGPTELFPCNFSKNDVMLSAVVMTYWTNFAKTGDPNQPVPQDTKFIHTKPNRFEEVAWTRYSQKDQLYLHIGLKPRVKEHYRANKVNLWLELVPHLHNLNDISQYTSTTTKVPSTDITLRPTRKNSTPVTSAFPTAKQDDPKQQPSPFSVDQRD

fold binding over NL1-691 [10]: 2.5 fold
B2: NL1-651 (soluble rat neuroligin-1 truncated by a stop codon at Thr-652, N-terminal FLAG) (receptor)
chain: DYKDDDDKLAAANSSIDLQKLDDVDPLVTTNFGKIRGIKKELNNEILGPVIQFLGVPYAAPPTGEHRFQPPEPPSPWSDIRNATQFAPVCPQNIIDGRLPEVMLPVWFTNNLDVVSSYVQDQSEDCLYLNIYVPTEDVKRISKECARKPGKKICRKGDIRDSGGPKPVMVYIHGGSYMEGTGNLYDGSVLASYGNVIVITVNYRLGVLGFLSTGDQAAKGNYGLLDLIQALRWTSENIGFFGGDPLRITVFGSGAGGSCVNLLTLSHYSEGNRWSNSTKGLFQRAIAQSGTALSSWAVSFQPAKYARILATKVGCNVSDTVELVECLQKKPYKELVDQDVQPARYHIAFGPVIDGDVIPDDPQILMEQGEFLNYDIMLGVNQGEGLKFVENIVDSDDGVSASDFDFAVSNFVDNLYGYPEGKDVLRETIKFMYTDWADRHNPETRRKTLLALFTDHQWVAPAVATADLHSNFGSPTYFYAFYHHCQTDQVPAWADAAHGDEVPYVLGIPMIGPTELFPCNFSKNDVMLSAVVMTYWTNFAKTGDPNQPVPQDTKFIHTKPNRFEEVAWTRYSQKDQLYLHIGLKPRVKEHYRANKVNLWLELVPHLHNLNDISQYTSTTTKVPS

fold binding over NL1-691 [10]: 2.5 fold | fold increase in binding after sialidase-II treatment [7]: 2 to 2.5 fold | fold increase in binding after PNGase F treatment [8]: 3 fold | fold increase in binding after combined sialidase II and PNGase F treatment [11]: 5 fold | increase of NX1β binding activity after PNGase F digestion [2]: 229%
B3: NL1-638 (soluble rat neuroligin-1 truncated by a stop codon at Ile-639, N-terminal FLAG) (receptor)
chain: DYKDDDDKLAAANSSIDLQKLDDVDPLVTTNFGKIRGIKKELNNEILGPVIQFLGVPYAAPPTGEHRFQPPEPPSPWSDIRNATQFAPVCPQNIIDGRLPEVMLPVWFTNNLDVVSSYVQDQSEDCLYLNIYVPTEDVKRISKECARKPGKKICRKGDIRDSGGPKPVMVYIHGGSYMEGTGNLYDGSVLASYGNVIVITVNYRLGVLGFLSTGDQAAKGNYGLLDLIQALRWTSENIGFFGGDPLRITVFGSGAGGSCVNLLTLSHYSEGNRWSNSTKGLFQRAIAQSGTALSSWAVSFQPAKYARILATKVGCNVSDTVELVECLQKKPYKELVDQDVQPARYHIAFGPVIDGDVIPDDPQILMEQGEFLNYDIMLGVNQGEGLKFVENIVDSDDGVSASDFDFAVSNFVDNLYGYPEGKDVLRETIKFMYTDWADRHNPETRRKTLLALFTDHQWVAPAVATADLHSNFGSPTYFYAFYHHCQTDQVPAWADAAHGDEVPYVLGIPMIGPTELFPCNFSKNDVMLSAVVMTYWTNFAKTGDPNQPVPQDTKFIHTKPNRFEEVAWTRYSQKDQLYLHIGLKPRVKEHYRANKVNLWLELVPHLHNLND
